From patent publication US20180030149A1 (AVEO PHARMACEUTICALS, published 2018)
Where a chain is given by its changes, count along the chain named.

B1: Sh24C05-23 (antibody, human IgG1, kappa, V domains shown)
VH: QVQLVESGGGVVQPGRSLRLSCAASGFTFSDYAMSWVRQAPGKGLEWVATISDGGTYTYYPDNVKGRFTISRDNSKNTLYLQMSSLRAEDTAVYYCAREWGDYDGFDYWGQGTLVTVSS
VL: DIQMTQSPSSLSASVGDRVTITCRASQEISGYLSWFQQKPGKAPKSLIYAASTLDSGVPSRFSGSGSGTDFTLTISSLQPEDFATYYCLQYDSYPYTFGQGTKLEIKR
notes: Humanized, human IgG1/kappa
B2: Sh24C05-17 (antibody, human IgG1, kappa, V domains shown)
VH: B1 VH
VL: B1 VL with F36L, K42G, P44I, S46R, T69S, F71Y
notes: Humanized, human IgG1/kappa
B3: Sh24C05-34 (antibody, human IgG1, kappa, V domains shown)
VH: B1 VH with Q1E, V5L, V11L, R16G, A49S, S84N
VL: B1 VL with F36Y, S46L, L73F, F83I
notes: Humanized, human IgG1/kappa
B4: Sh24C05-38 (antibody, human IgG1, kappa)
heavy: not shown
light: DIQLTQSPSFLSASVGDRVTITCRASQEISGYLSWYQQKPGKAPKLLIYAASTLDSGVPSRFSGSGSGTEFTLTISSLQPEDFATYYCLQYDSYPYTFGQGTKLEIKRTVAAPSVFIFPPSDEQLKSGTASVVCLLNNFYPREAKVQWKVDNALQSGNSQESVTEQDSKDSTYSLSSTLTLSKADYEKHKVYACEVTHQGLSSPVTKSFNRGEC
notes: Humanized, human IgG1/kappa
B5: Sh24C05-44 (antibody, human IgG1, kappa)
heavy: not shown
light: B4 light with L4M, F10S, E70D
notes: Humanized, human IgG1/kappa
B6: Sh24C05-42 (antibody, human IgG1, kappa)
heavy: not shown
light: B4 light
notes: Humanized, human IgG1/kappa
B7: Sh24C05-43 (antibody, human IgG1, kappa, V domains shown)
VH: B1 VH with V11L, Q13K, R16G, V37I, A49S, S75A, T78S, S84N
VL: B1 VL with M4L, S10F, F36Y, S46L, D70E
notes: Humanized, human IgG1/kappa
B8: Sh24C05-37 (antibody, human IgG1, kappa, V domains shown)
VH: B1 VH with V11L, Q13K, R16G, V37I, A49S, S75A, T78S, S84N
VL: B1 VL with F36Y, S46L, L73F, F83I
notes: Humanized, human IgG1/kappa
B9: Sh24C05-28 (antibody, human IgG1, kappa, V domains shown)
VH: B1 VH with Q1E, V5L, V11L, R16G, A49S, S84N
VL: B1 VL with F36Y, S46R, D70E
notes: Humanized, human IgG1/kappa
B10: Sh24C05-26 (antibody, human IgG1, kappa)
heavy: not shown
light: B4 light with L4M, F10S, L46R
notes: Humanized, human IgG1/kappa
B11: Sh24C05-33 (antibody, human IgG1, kappa, V domains shown)
VH: B1 VH with Q1E, V11L, Q13K, R16G, A49S, S75A, T78S, S84N
VL: B1 VL with F36Y, S46L, L73F, F83I
notes: Humanized, human IgG1/kappa
B12: Sh24C05-29 (antibody, human IgG1, kappa, V domains shown)
VH: B1 VH
VL: B1 VL with F36Y, S46R, D70E
notes: Humanized, human IgG1/kappa
B13: Sh24C05-35 (antibody, human IgG1, kappa, V domains shown)
VH: B1 VH
VL: B1 VL with F36Y, S46L, L73F, F83I
notes: Humanized, human IgG1/kappa
B14: Sh24C05-24 (antibody, human IgG1, kappa)
heavy: not shown
light: B4 light with L4M, F10S, Y36F, L46S, E70D
notes: Humanized, human IgG1/kappa
B15: Sh24C05-40 (antibody, human IgG1, kappa, V domains shown)
VH: B1 VH with Q1E, V5L, V11L, R16G, A49S, S84N
VL: B1 VL with M4L, S10F, F36Y, S46L, D70E
notes: Humanized, human IgG1/kappa
B16: Sh24C05-30 (antibody, human IgG1, kappa)
heavy: not shown
light: B4 light with L4M, F10S, L46R
notes: Humanized, human IgG1/kappa
B17: Sh24C05-47 (antibody, human IgG1, kappa, V domains shown)
VH: B1 VH
VL: B1 VL with F36Y, S46L
notes: Humanized, human IgG1/kappa
B18: Sh24C05-49 (antibody, human IgG1, kappa, V domains shown)
VH: B1 VH with V11L, Q13K, R16G, V37I, A49S, S75A, T78S, S84N
VL: B1 VL with F36Y, S46L
notes: Humanized, human IgG1/kappa
B19: Sh24C05-27 (antibody, human IgG1, kappa, V domains shown)
VH: B1 VH with Q1E, V11L, Q13K, R16G, A49S, S75A, T78S, S84N
VL: B1 VL with F36Y, S46R, D70E
notes: Humanized, human IgG1/kappa
B20: Sh24C05-39 (antibody, human IgG1, kappa, V domains shown)
VH: B1 VH with Q1E, V11L, Q13K, R16G, A49S, S75A, T78S, S84N
VL: B1 VL with M4L, S10F, F36Y, S46L, D70E
notes: Humanized, human IgG1/kappa
B21: Sh24C05-46 (antibody, human IgG1, kappa, V domains shown)
VH: B1 VH with Q1E, V5L, V11L, R16G, A49S, S84N
VL: B1 VL with F36Y, S46L
notes: Humanized, human IgG1/kappa
B22: Sh24C05-48 (antibody, human IgG1, kappa)
heavy: not shown
light: B4 light with L4M, F10S, E70D
notes: Humanized, human IgG1/kappa
B23: Sh24C05-41 (antibody, human IgG1, kappa, V domains shown)
VH: B1 VH
VL: B1 VL with M4L, S10F, F36Y, S46L, D70E
notes: Humanized, human IgG1/kappa

target: T1, recombinant human ErbB3 monomeric protein (cleaved rhErbB3) (human, UniProt P21860 20-643, limits assumed); test: SPR Biacore 37 C; supernatant antibody captured on anti-human Fc, cleaved rhErbB3 injected
T1 construct: Monomer made by protease cleavage of the Fc fusion; also called Monomeric ErbB3
Procedure: The analyses were performed at 37° C. using PBS (Invitrogen, Catalog No. 14040-133) containing 0.05% surfactant P20 (Biacore, Catalog No. BR-1000-54) as running buffer.
The antibodies were captured in individual flow cells at a flow rate of […]. Injection time was varied for each antibody to yield an Rₘₐₓ between 30 and 60 RU. […] The dissociation phase was monitored for up to 1200 seconds. The surface was then regenerated with two 60 second injections of Glycine pH 2.25 (made from Glycine pH 2.0 (Biacore, Catalog No. BR-1003-55) and pH 2.5 (Biacore, Catalog No. BR-1003-56)) at […].
Kinetic parameters were determined using the kinetic function of the BIAevaluation software (Biacore) with double reference subtraction. Kinetic parameters for each antibody, kₐ (association rate constant), kd (dissociation rate constant) and KD (equilibrium dissociation constant) were determined.

Kd [nM]	koff [s⁻¹]	kon [M⁻¹ s⁻¹]	Binder
0.263	0.000721	2.79e+06	B1
0.15	0.000417	2.79e+06	B2
0.552	0.006	1.09e+07	B3
0.567	0.0154	2.71e+07	B4
0.644	0.00512	7.96e+06	B5
0.927	0.00682	7.35e+06	B6
0.582	0.00358	6.16e+06	B7
0.374	0.002	5.94e+06	B8
0.189	0.000614	3.26e+06	B9
0.22	0.000739	3.36e+06	B10
1.08	0.00433	4.02e+06	B11
0.182	0.000588	3.25e+06	B12
0.655	0.00553	8.44e+06	B13
0.218	0.000628	2.9e+06	B14
0.503	0.0106	2.11e+07	B15
0.19	0.000787	4.48e+06	B16
0.553	0.00441	7.98e+06	B17
0.416	0.0017	4.08e+06	B18
0.24	0.000798	3.34e+06	B19
0.819	0.00967	1.18e+07	B20
0.551	0.0044	7.99e+06	B21
0.562	0.0049	8.72e+06	B22
0.669	0.0121	1.81e+07	B23
